Measured values published in patent publication US20030175243A1.

The substances below were run against natural cellular receptor for adenoviruses, on human 293 cells (assay: cell-based or functional assay).

| Substance | propagation of the corresponding virus in 293 cells (multiplication factor) (multiplication factor) | multiplication factor of the virus in 293 cells (7 days post-infection) (multiplication factor) |
| --- | --- | --- |
| Ad5 fiber CD5 to CD3 (replacement of the CD loop of an Ad5 with its equivalent from an Ad3) | < 1 |  |
| Ad5 fiber with the mutation A455F (from UniProt P11818 1-581) | < 1 |  |
| Ad5 fiber with the mutation G443D (from UniProt P11818 1-581) | < 1 |  |
| Ad5 fiber with the mutation I459A (from UniProt P11818 1-581) | < 1 |  |
| Ad5 fiber with the mutation L457K (from UniProt P11818 1-581) | < 1 |  |
| Ad5 fiber ΔCD+D (deletion of the CD loop and of the D sheet) (from UniProt P11818 1-581) | < 1 |  |
| Ad5 fiber ΔD (deletion of the D sheet of the Ad5 fiber) (from UniProt P11818 1-581) | < 1 |  |
| GRP fiber (Ad5 fiber with a 12-residue spacer arm and the GRP peptide at its C-terminal end), carried by AdTG4628 (from UniProt P11818 1-581) |  | 1000 |
